Results taken from article PMC10536547, “Investigation of the Effect on the Albumin Binding Moiety for the Pharmacokinetic Properties of ^68Ga-, ^205/206Bi-, and ^177Lu-Labeled NAPamide-Based Radiopharmaceuticals” (Pharmaceuticals, 2023).

Legend:
[1] = type: physicochemical
Method: After the dilution of the purified radiotracers ([^68Ga]Ga-DOTA-[…]-DOTA-[…], [^205/206Bi]Bi-DOTA-[…], [^205/206Bi]Bi-DOTA-[…], [^177Lu]Lu-DOTA-[…], [^177Lu]Lu-DOTA-[…]) (50 μL, 1-3 MBq) with 450 μL water, 500 μL n-octanol was added to each sample. […] The activity of the samples from n-octanol phase (20 μL) and aqueous phase (20 μL) was analyzed with gamma counter. The procedure was performed in triplicate. For [^68Ga]Ga-DOTA-[…]-DOTA-[…], [^205/206Bi]Bi-DOTA-[…], [^205/206Bi]Bi-DOTA-[…], [^177Lu]Lu-DOTA-[…], and for [^177Lu]Lu-DOTA-[…] the logP values were -3.46, -2.12, -3.65, -2.32, -2.6, 1.26, respectively.

[2] = tested on: B16F10 tumor-bearing mice; assay: Ex vivo organ distribution in B16F10 tumor-bearing mice; set-up: species or system C57BL/6 mice; conditions: mouse, iv
Method: (§1) To accomplish post-imaging organ distribution investigations, 9.36 ± 0.67, 6.34 ± 1.07 and 2.39 ± 0.19 MBq of ^68Ga-labeled-^177Lu-labeled-and ^205/206Bi-labeled […]-based probes were iv. Injected, respectively, into the lateral tail vein of both the tumor-naive and the melanoma tumor-carrying experimental mice. Ninety-minutes ([^68Ga]Ga-DOTA-[…]-DOTA-[…]; [^205/206Bi]Bi-DOTA-[…]; [^205/206Bi]Bi-DOTA-[…]) and 24 h ([^177Lu]Lu-DOTA-[…]; [^177Lu]Lu-DOTA-[…]) post tracer administration, mice were sacrificed under Forane-induced inhalation anesthesia. Then, the tumor, the blood, and selected organs and tissues were removed, weighed wet and measured for radioactivity applying a calibrated gamma counter (Perkin-Elmer Packard 406 Cobra, Waltham, MA, USA). The counts per minute (CPM) figures for each sample were converted to percent of administered dose per gram of tissue (%ID/g).

[3] = as above; set-up: species or system C57BL/6 mice; conditions: mouse, iv
Method: as §1

in vivo = assay: in vivo; set-up: species or system C57BL/6 mice; conditions: C57BL/6, mouse, iv, total radioactivity
Method: At 9 ± 1 days post tumor implantation, at an average tumor bulk of approximately 120 mm^3, the tumor-naive and the B16F10 tumor-bearing mice were intravenously (iv.) injected with 9.36 ± 0.67 MBq of [^68Ga]Ga-DOTA-NAPamide or [^68Ga]Ga-DOTA-IPB-NAPamide via the lateral tail vein. After a 90-min-long tracer distribution time, the study mice were subjected to whole-body static PET acquisition (10 min scans at each bed position) under isoflurane-induced anesthesia (AbbVie, Budapest, Hungary; OGYI-T-1414/01) applying a preclinical MiniPET-II small animal PET device (Division of Nuclear Medicine and Translational Imaging, Department of Medical Imaging, Faculty of Medicine, University of Debrecen).
Three-dimensional ordered-subsets expectation-maximization algorithm (3D OSEM) was used for PET image reconstruction. Three-dimensional ellipsoidal volume of interests (VOI) were manually placed around the border of the organ/tissue activity to calculate their radiotracer concentration. The radiopharmaceutical accumulation was presented as standardized uptake values (SUVs). The following formula was applied for the determination of the SUV parameter:SUV (g/mL) = [VOI activity (Bq/mL)]/[administered activity (Bq)/animal weight (g)]

CCCC[C@H](NC(C)=O)C(=O)N[C@@H](CC(=O)O)C(=O)N[C@@H](Cc1c[nH]cn1)C(=O)N[C@H](Cc1ccccc1)C(=O)N[C@@H](CCCNC(=N)N)C(=O)N[C@@H](Cc1c[nH]c2ccccc12)C(=O)NCC(=O)N[C@@H](CCCCNC(=O)CN1CCN(CC(=O)O)CCN(CC(=O)O)CCN(CC(=O)O)CC1)C(N)=O [[^177Lu]Lu-DOTA-NAPamide] [metal not drawn, reference compound]
logP [1]: −2.6
brain uptake ([2]; 24 h): 0.00 ± 0.00 %ID/g
muscle uptake ([2]; 24 h): 0.00 ± 0.00 %ID/g

CCCC[C@H](NC(C)=O)C(=O)N[C@@H](CC(=O)O)C(=O)N[C@@H](Cc1c[nH]cn1)C(=O)N[C@H](Cc1ccccc1)C(=O)N[C@@H](CCCNC(=N)N)C(=O)N[C@@H](Cc1c[nH]c2ccccc12)C(=O)NCC(=O)N[C@@H](CCCCNC(=O)[C@H](CCCCNC(=O)CCCc1ccc(I)cc1)NC(=O)CN1CCN(CC(=O)O)CCN(CC(=O)O)CCN(CC(=O)O)CC1)C(N)=O [[^68Ga]Ga-DOTA-IPB-NAPamide, metal not drawn]
tissue uptake at 1.5 h ([3]; B16-F10 tumor uptake): 5.06 ± 1.08 %ID/g
tissue uptake at 1.5 h ([3]; blood uptake): 14.2 ± 1.87 %ID/g
tissue uptake at 1.5 h ([3]; brain uptake): 0.28 ± 0.02 %ID/g
tissue uptake at 1.5 h ([3]; fat uptake): 2.02 ± 0.65 %ID/g
tissue uptake at 1.5 h ([3]; heart uptake): 5.14 ± 0.72 %ID/g
tissue uptake at 1.5 h ([3]; kidney uptake): 4.57 ± 0.88 %ID/g
tissue uptake at 1.5 h ([3]; large intestine uptake): 0.92 ± 1.25 %ID/g
tissue uptake at 1.5 h ([3]; liver uptake): 2.64 ± 0.11 %ID/g
tissue uptake at 1.5 h ([3]; lung uptake): 6.32 ± 0.91 %ID/g
tissue uptake at 1.5 h ([3]; muscle uptake): 1.01 ± 0.18 %ID/g
tissue uptake at 1.5 h ([3]; small intestine uptake): 2.41 ± 0.03 %ID/g
tissue uptake at 1.5 h ([3]; spleen uptake): 2.37 ± 0.25 %ID/g
tissue uptake at 1.5 h ([3]; stomach uptake): 2.97 ± 1.38 %ID/g
SUV at 1.5 h (in vivo): 1.31 ± 0.24 SUV

CCCC[C@H](NC(C)=O)C(=O)N[C@@H](CC(=O)O)C(=O)N[C@@H](Cc1c[nH]cn1)C(=O)N[C@H](Cc1ccccc1)C(=O)N[C@@H](CCCNC(=N)N)C(=O)N[C@@H](Cc1c[nH]c2ccccc12)C(=O)NCC(=O)N[C@@H](CCCCNC(=O)[C@H](CCCCNC(=O)CCCc1ccc(I)cc1)NC(=O)CN1CCN(CC(=O)O)CCN(CC(=O)O)CCN(CC(=O)O)CC1)C(N)=O [[^177Lu]Lu-DOTA-IPB-NAPamide, metal not drawn]
tissue uptake at 24 h ([3]; B16-F10 tumor uptake): 4.16 ± 1.86 %ID/g
tissue uptake at 24 h ([3]; blood uptake): 3.71 ± 0.73 %ID/g
tissue uptake at 24 h ([3]; brain uptake): 0.08 ± 0.01 %ID/g
tissue uptake at 24 h ([3]; fat uptake): 0.67 ± 0.34 %ID/g
tissue uptake at 24 h ([3]; heart uptake): 1.3 ± 0.12 %ID/g
tissue uptake at 24 h ([3]; kidney uptake): 5.58 ± 1.59 %ID/g
tissue uptake at 24 h ([3]; large intestine uptake): 0.61 ± 0.11 %ID/g
tissue uptake at 24 h ([3]; liver uptake): 1.97 ± 0.13 %ID/g
tissue uptake at 24 h ([3]; lung uptake): 2.5 ± 0.24 %ID/g
tissue uptake at 24 h ([3]; muscle uptake): 0.33 ± 0.07 %ID/g
tissue uptake at 24 h ([3]; small intestine uptake): 0.6 ± 0.03 %ID/g
tissue uptake at 24 h ([3]; spleen uptake): 1.32 ± 0.2 %ID/g
tissue uptake at 24 h ([3]; stomach uptake): 0.69 ± 0.11 %ID/g

CCCC[C@H](NC(C)=O)C(=O)N[C@@H](CC(=O)O)C(=O)N[C@@H](Cc1c[nH]cn1)C(=O)N[C@H](Cc1ccccc1)C(=O)N[C@@H](CCCNC(=N)N)C(=O)N[C@@H](Cc1c[nH]c2ccccc12)C(=O)NCC(=O)N[C@@H](CCCCNC(=O)[C@H](CCCCNC(=O)CCCc1ccc(I)cc1)NC(=O)CN1CCN(CC(=O)O)CCN(CC(=O)O)CCN(CC(=O)O)CC1)C(N)=O [[^68Ga]Ga-DOTA-IPB-NAPamide] [metal not drawn]
logP [1]: −2.12

CCCC[C@H](NC(C)=O)C(=O)N[C@@H](CC(=O)O)C(=O)N[C@@H](Cc1c[nH]cn1)C(=O)N[C@H](Cc1ccccc1)C(=O)N[C@@H](CCCNC(=N)N)C(=O)N[C@@H](Cc1c[nH]c2ccccc12)C(=O)NCC(=O)N[C@@H](CCCCNC(=O)CN1CCN(CC(=O)O)CCN(CC(=O)O)CCN(CC(=O)O)CC1)C(N)=O [[^177Lu]Lu-DOTA-NAPamide, metal not drawn, reference compound]
tissue uptake at 24 h ([3]; B16-F10 tumor uptake): 0.16 ± 0.15 %ID/g
tissue uptake at 24 h ([3]; fat uptake): 0.01 ± 0.01 %ID/g
tissue uptake at 24 h ([3]; heart uptake): 0.01 %ID/g
tissue uptake at 24 h ([3]; kidney uptake): 1.85 ± 0.79 %ID/g
tissue uptake at 24 h ([3]; liver uptake): 0.24 ± 0.13 %ID/g
tissue uptake at 24 h ([3]; lung uptake): 0.04 ± 0.03 %ID/g
tissue uptake at 24 h ([3]; small intestine uptake): 0.01 ± 0.01 %ID/g
tissue uptake at 24 h ([3]; spleen uptake): 0.07 ± 0.04 %ID/g

CCCC[C@H](NC(C)=O)C(=O)N[C@@H](CC(=O)O)C(=O)N[C@@H](Cc1c[nH]cn1)C(=O)N[C@H](Cc1ccccc1)C(=O)N[C@@H](CCCNC(=N)N)C(=O)N[C@@H](Cc1c[nH]c2ccccc12)C(=O)NCC(=O)N[C@@H](CCCCNC(=O)CN1CCN(CC(=O)O)CCN(CC(=O)O)CCN(CC(=O)O)CC1)C(N)=O [[^68Ga]Ga-DOTA-NAPamide] [metal not drawn, reference compound]
logP [1]: −3.46
B16-F10 tumor uptake ([2]; 1.5 h): 1.18 ± 0.27 %ID/g
fat uptake ([2]; 1.5 h): 0.16 ± 0.03 %ID/g
kidney uptake ([2]; 1.5 h): 3.07 ± 0.35 %ID/g
liver uptake ([2]; 1.5 h): 0.31 ± 0.08 %ID/g
spleen uptake ([2]; 1.5 h): 0.15 ± 0.02 %ID/g

CCCC[C@H](NC(C)=O)C(=O)N[C@@H](CC(=O)O)C(=O)N[C@@H](Cc1c[nH]cn1)C(=O)N[C@H](Cc1ccccc1)C(=O)N[C@@H](CCCNC(=N)N)C(=O)N[C@@H](Cc1c[nH]c2ccccc12)C(=O)NCC(=O)N[C@@H](CCCCNC(=O)CN1CCN(CC(=O)O)CCN(CC(=O)O)CCN(CC(=O)O)CC1)C(N)=O [[^68Ga]Ga-DOTA-NAPamide, metal not drawn, reference compound]
tissue uptake at 1.5 h ([3]; blood uptake): 0.35 ± 0.1 %ID/g
tissue uptake at 1.5 h ([3]; brain uptake): 0.03 ± 0.01 %ID/g
tissue uptake at 1.5 h ([3]; heart uptake): 0.1 ± 0.06 %ID/g
tissue uptake at 1.5 h ([3]; large intestine uptake): 0.3 ± 0.01 %ID/g
tissue uptake at 1.5 h ([3]; lung uptake): 0.33 ± 0.06 %ID/g
tissue uptake at 1.5 h ([3]; muscle uptake): 0.08 ± 0.02 %ID/g
tissue uptake at 1.5 h ([3]; small intestine uptake): 0.35 ± 0.13 %ID/g
tissue uptake at 1.5 h ([3]; stomach uptake): 0.24 ± 0.09 %ID/g
SUV at 1.5 h (in vivo): 0.43 ± 0.09 SUV
